Reference: publication PMC4770247

Assays:
NRF2;MAFG [1] = target: T1, NRF2;MAFG (human?;human?, UniProt Q16236;O15525 1-605;1-162, |); experiment: protein binding microarray, anti-NRF2 detection
NRF2;MAFG [2] = target: T1, NRF2;MAFG; experiment: protein binding microarray, anti-NRF2 detection; remark: listed apart in the source

Row | Binder | binding signal (NRF2;MAFG [1]) | binding result (NRF2;MAFG [2])
1 | NQO1.ARE (dsDNA, 3' biotin on top strand; nick in top strand between nt 33 and 34) DNA 1: CCGCAGTCACAGTGACTCAGCAGAATCTGAGCCACCCAACCGCCCAACTT DNA 2: AAGTTGGGCGGTTGGGTGGCTCAGATTCTGCTGAGTCACTGTGACTGCGG | 1 relative to NQO1.ARE | –
2 | 7A (dsDNA, 3' biotin on top strand; nick in top strand between nt 33 and 34) DNA 1: CCGCAGTCACAGTGACTAAGCAGAATCTGAGCCACCCAACCGCCCAACTT DNA 2: AAGTTGGGCGGTTGGGTGGCTCAGATTCTGCTTAGTCACTGTGACTGCGG | – | binds
